Drawing on US20260193335A1 (ZOETIS SERVICES, published 2026), this text covers Kd for nine molecules.

B1: mAb4 (felinized anti-IL31 antibody ZTS-5864) S428I, feline IgG1a (antibody, part only; not given: light constant region, not shown: another chain or arm of the molecule)
heavy: DVQLVESGGDLVKPGGSLRLTCVASGFTFSDYAMSWVRQAPGKGLQWVAGIDSVGSGTSYADSVKGRFTISRDNAKNTLYLQMNSLKTEDTATYYCASGFPGSFEHWGQGTLVTVSSASTTAPSVFPLAPSCGTTSGATVALACLVLGYFPEPVTVSWNSGALTSGVHTFPAVLQASGLYSLSSMVTVPSSRWLSDTFTCNVAHPPSNTKVDKTVRKTDHPPGPKPCDCPKCPPPEMLGGPSIFIFPPKPKDTLSISRTPEVTCLVVDLGPDDSDVQITWFVDNTQVYTAKTSPREEQFNSTYRVVSVLPILHQDWLKGKEFKCKVNSKSLPSPIERTISKAKGQPHEPQVYVLPPAQEELSRNKVSVTCLIKSFHPPDIAVEWEITGQPEPENNYRTTPPQLDSDGTYFVYSKLSVDRSHWQRGNTYTCSVIHEALHSHHTQKSLTQSPGK
VL: QSVLTQPSSVSGTLGQRITISCTGSSSNIGSGYVGWYQQVPGMGPKTVIYYNSDRPSGVPDRFSGSKSGSSGTLTITGLQAEDEADYYCSVYDRTFNAVFGGGT
B2: mAb4 (felinized anti-IL31 antibody ZTS-5864) S428N, feline IgG1a (antibody, part only; not given: light constant region, not shown: another chain or arm of the molecule)
heavy: DVQLVESGGDLVKPGGSLRLTCVASGFTFSDYAMSWVRQAPGKGLQWVAGIDSVGSGTSYADSVKGRFTISRDNAKNTLYLQMNSLKTEDTATYYCASGFPGSFEHWGQGTLVTVSSASTTAPSVFPLAPSCGTTSGATVALACLVLGYFPEPVTVSWNSGALTSGVHTFPAVLQASGLYSLSSMVTVPSSRWLSDTFTCNVAHPPSNTKVDKTVRKTDHPPGPKPCDCPKCPPPEMLGGPSIFIFPPKPKDTLSISRTPEVTCLVVDLGPDDSDVQITWFVDNTQVYTAKTSPREEQFNSTYRVVSVLPILHQDWLKGKEFKCKVNSKSLPSPIERTISKAKGQPHEPQVYVLPPAQEELSRNKVSVTCLIKSFHPPDIAVEWEITGQPEPENNYRTTPPQLDSDGTYFVYSKLSVDRSHWQRGNTYTCSVNHEALHSHHTQKSLTQSPGK
VL: QSVLTQPSSVSGTLGQRITISCTGSSSNIGSGYVGWYQQVPGMGPKTVIYYNSDRPSGVPDRFSGSKSGSSGTLTITGLQAEDEADYYCSVYDRTFNAVFGGGT
B3: mAb4 (felinized anti-IL31 antibody ZTS-5864) S428K, feline IgG1a (antibody, part only; not given: light constant region, not shown: another chain or arm of the molecule)
heavy: DVQLVESGGDLVKPGGSLRLTCVASGFTFSDYAMSWVRQAPGKGLQWVAGIDSVGSGTSYADSVKGRFTISRDNAKNTLYLQMNSLKTEDTATYYCASGFPGSFEHWGQGTLVTVSSASTTAPSVFPLAPSCGTTSGATVALACLVLGYFPEPVTVSWNSGALTSGVHTFPAVLQASGLYSLSSMVTVPSSRWLSDTFTCNVAHPPSNTKVDKTVRKTDHPPGPKPCDCPKCPPPEMLGGPSIFIFPPKPKDTLSISRTPEVTCLVVDLGPDDSDVQITWFVDNTQVYTAKTSPREEQFNSTYRVVSVLPILHQDWLKGKEFKCKVNSKSLPSPIERTISKAKGQPHEPQVYVLPPAQEELSRNKVSVTCLIKSFHPPDIAVEWEITGQPEPENNYRTTPPQLDSDGTYFVYSKLSVDRSHWQRGNTYTCSVKHEALHSHHTQKSLTQSPGK
VL: QSVLTQPSSVSGTLGQRITISCTGSSSNIGSGYVGWYQQVPGMGPKTVIYYNSDRPSGVPDRFSGSKSGSSGTLTITGLQAEDEADYYCSVYDRTFNAVFGGGT
B4: mAb4 (felinized anti-IL31 antibody ZTS-5864) S428M, feline IgG1a (antibody, part only; not given: light constant region, not shown: another chain or arm of the molecule)
heavy: DVQLVESGGDLVKPGGSLRLTCVASGFTFSDYAMSWVRQAPGKGLQWVAGIDSVGSGTSYADSVKGRFTISRDNAKNTLYLQMNSLKTEDTATYYCASGFPGSFEHWGQGTLVTVSSASTTAPSVFPLAPSCGTTSGATVALACLVLGYFPEPVTVSWNSGALTSGVHTFPAVLQASGLYSLSSMVTVPSSRWLSDTFTCNVAHPPSNTKVDKTVRKTDHPPGPKPCDCPKCPPPEMLGGPSIFIFPPKPKDTLSISRTPEVTCLVVDLGPDDSDVQITWFVDNTQVYTAKTSPREEQFNSTYRVVSVLPILHQDWLKGKEFKCKVNSKSLPSPIERTISKAKGQPHEPQVYVLPPAQEELSRNKVSVTCLIKSFHPPDIAVEWEITGQPEPENNYRTTPPQLDSDGTYFVYSKLSVDRSHWQRGNTYTCSVMHEALHSHHTQKSLTQSPGK
VL: QSVLTQPSSVSGTLGQRITISCTGSSSNIGSGYVGWYQQVPGMGPKTVIYYNSDRPSGVPDRFSGSKSGSSGTLTITGLQAEDEADYYCSVYDRTFNAVFGGGT
B5: mAb6 anti-TGFβ antibody ZTS-310, wildtype (antibody, IgG1a)
heavy: QVLLVQSGAEVRRPGASVKIFCKASGYSFTSSWMNWLRQAPAQGFEWMGQIYPGDGDTNYNGKFKGRLTLTADTSTDTAYMELSSLRSADTAVYYCARHYDGSTDYWGHGTIVTVSSASTTAPSVFPLAPSCGTTSGATVALACLVLGYFPEPVTVSWNSGALTSGVHTFPAVLQASGLYSLSSMVTVPSSRWLSDTFTCNVAHPPSNTKVDKTVRKTDHPPGPKPCDCPKCPPPEMLGGPSIFIFPPKPKDTLSISRTPEVTCLVVDLGPDDSDVQITWFVDNTQVYTAKTSPREEQFNSTYRVVSVLPILHQDWLKGKEFKCKVNSKSLPSPIERTISKAKGQPHEPQVYVLPPAQEELSRNKVSVTCLIKSFHPPDIAVEWEITGQPEPENNYRTTPPQLDSDGTYFVYSKLSVDRSHWQRGNTYTCSVSHEALHSHHTQKSLTQSPGK
light: AITMTQSPGSLAGSPGQQVTMNCRASENIYSNLAWYQQKPGQHPKLLIYAATNLADGVPDRFSGSGSGTDFTLTISNLQAEDVASYYCQHFWGTPYTFGGGTK
notes: 'Feline IgG1a subclass B was used'; The listing names the entries heavy chain and light chain; also called mAb6 ID No. 1; ZTS-310 WT
B6: mAb6 anti-TGFβ antibody ZTS-120-1, wildtype (antibody)
heavy: QVQLVQSGAEVKKPGSSVKVSCKASGYTFSSNVISWVRQAPGQGLEWMGGVIPIVDIANYAQRFKGRVTITADESTSTTYMELSSLRSEDTAVYYCASTLGLVLDAMDYWGQGTLVTVSSASTTAPSVFPLAPSCGTTSGATVALACLVLGYFPEPVTVSWNSGALTSGVHTFPAVLQASGLYSLSSMVTVPSSRWLSDTFTCNVAHPPSNTKVDKTVRKTDHPPGPKPCDCPKCPPPEMLGGPSIFIFPPKPKDTLSISRTPEVTCLVVDLGPDDSDVQITWFVDNTQVYTAKTSPREEQFNSTYRVVSVLPILHQDWLKGKEFKCKVNSKSLPSPIERTISKAKGQPHEPQVYVLPPAQEELSRNKVSVTCLIKSFHPPDIAVEWEITGQPEPENNYRTTPPQLDSDGTYFVYSKLSVDRSHWQRGNTYTCSVSHEALHSHHTQKSLTQSPGK
light: ETVLTQSPGTLSLSPGERATLSCRASQSLGSSYLAWYQQKPGQAPRLLIYGASSRAPGIPDRFSGSGSGTDFTLTISRLEPEDFAVYYCQQYADSPITFGQGTKLEIK
notes: also called mAb6 ID No. 12
B7: mAb6 anti-TGFβ antibody ZTS-120-2, wildtype (antibody)
heavy: QVLLVQSGADVRKPGASVKIFCKASGYTFTSNVISWVRQTPAQGFEWMGGVIPIVDIANYAQRFKGRLVLTADTSTNTAYMELRSLKSADTAVYYCASTLGLVLDAMDYWGQGSLVTVSSASTTAPSVFPLAPSCGTTSGATVALACLVLGYFPEPVTVSWNSGALTSGVHTFPAVLQASGLYSLSSMVTVPSSRWLSDTFTCNVAHPPSNTKVDKTVRKTDHPPGPKPCDCPKCPPPEMLGGPSIFIFPPKPKDTLSISRTPEVTCLVVDLGPDDSDVQITWFVDNTQVYTAKTSPREEQFNSTYRVVSVLPILHQDWLKGKEFKCKVNSKSLPSPIERTISKAKGQPHEPQVYVLPPAQEELSRNKVSVTCLIKSFHPPDIAVEWEITGQPEPENNYRTTPPQLDSDGTYFVYSKLSVDRSHWQRGNTYTCSVSHEALHSHHTQKSLTQSPGK
light: EIQMTQSPSSLSASPGDRVTITCRASQSLGSSYLAWYQQKPGKVPKLLIYGASSRAPGVPSRFSGSGSGTDFTLTISSLEPEDAATYYCQQYADSPITFGQGTKLEIK
notes: also called mAb6 ID No. 14
B8: mAb6 anti-TGFβ antibody ZTS-120-3, wildtype (antibody)
heavy: QVLLVQSGAEVRTPGASVKIFCKASGYGFTSNVISWVRQSPAQGLEWMGGVIPIVDIANYAQRFKGRLTLTADTSTDTAYMELSSLRSADTAMYYCASTLGLVLDAMDYWGQGTLVTVSSASTTAPSVFPLAPSCGTTSGATVALACLVLGYFPEPVTVSWNSGALTSGVHTFPAVLQASGLYSLSSMVTVPSSRWLSDTFTCNVAHPPSNTKVDKTVRKTDHPPGPKPCDCPKCPPPEMLGGPSIFIFPPKPKDTLSISRTPEVTCLVVDLGPDDSDVQITWFVDNTQVYTAKTSPREEQFNSTYRVVSVLPILHQDWLKGKEFKCKVNSKSLPSPIERTISKAKGQPHEPQVYVLPPAQEELSRNKVSVTCLIKSFHPPDIAVEWEITGQPEPENNYRTTPPQLDSDGTYFVYSKLSVDRSHWQRGNTYTCSVSHEALHSHHTQKSLTQSPGK
light: EIQMTQSPSSLSASPGDRVTITCRASQSLGSSYLAWYQQKPGKVPKLLIYGASSRAPGVPSRFSGSGSGTDFTLTISSLEPEDAATYYCQQYADSPITFGQGTKLEIK
notes: also called mAb6 ID No. 16
B9: mAb6 anti-TGFβ antibody ZTS-120-4, wildtype (antibody)
heavy: QVLLVQSGADVRKPGASVKIFCKASGYTFSSNVMHWVRQTPAQGFEWMGSVIPIVDIATYARRFQGRLVLTADTSTNTAYMELRSLKSADTAVYYCARTLGLVLDAMDYWGQGSLVTVSSASTTAPSVFPLAPSCGTTSGATVALACLVLGYFPEPVTVSWNSGALTSGVHTFPAVLQASGLYSLSSMVTVPSSRWLSDTFTCNVAHPPSNTKVDKTVRKTDHPPGPKPCDCPKCPPPEMLGGPSIFIFPPKPKDTLSISRTPEVTCLVVDLGPDDSDVQITWFVDNTQVYTAKTSPREEQFNSTYRVVSVLPILHQDWLKGKEFKCKVNSKSLPSPIERTISKAKGQPHEPQVYVLPPAQEELSRNKVSVTCLIKSFHPPDIAVEWEITGQPEPENNYRTTPPQLDSDGTYFVYSKLSVDRSHWQRGNTYTCSVSHEALHSHHTQKSLTQSPGK
light: EIQMTQSPSSLSASPGDRVTITCRASQSLGSSYLAWYQQKPGKVPKLLIYGASSRAPGVPSRFSGSGSGTDFTLTISSLEPEDAATYYCQQYADSPITFGQGTKLEIK
notes: also called mAb6 ID No. 18

As usually defined, the Kd is the constant that tells how readily two partners part at equilibrium. A low value points to tighter binding.

One assay deals with Feline FcRn (complex of FcRn-α subunit and β-microglobulin, C-terminal His tag) (feline). The experiment in a line: SPR Biacore, biotin-FcRn on SA chip, pH 6.
Chain of Feline FcRn (complex of FcRn-α subunit and β-microglobulin, C-terminal His tag) (feline) (chain, as listed by the source, chain 1 of 2): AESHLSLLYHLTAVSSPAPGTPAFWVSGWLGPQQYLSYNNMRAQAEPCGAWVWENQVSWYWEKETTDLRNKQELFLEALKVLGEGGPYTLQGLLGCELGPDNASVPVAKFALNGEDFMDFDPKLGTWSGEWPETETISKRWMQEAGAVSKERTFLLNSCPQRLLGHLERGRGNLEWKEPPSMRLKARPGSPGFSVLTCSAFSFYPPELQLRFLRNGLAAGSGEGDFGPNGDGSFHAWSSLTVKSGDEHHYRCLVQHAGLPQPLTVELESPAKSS
Chain of Feline FcRn (complex of FcRn-α subunit and β-microglobulin, C-terminal His tag) (feline) (Q5MGS7 21-118, chain 2 of 2): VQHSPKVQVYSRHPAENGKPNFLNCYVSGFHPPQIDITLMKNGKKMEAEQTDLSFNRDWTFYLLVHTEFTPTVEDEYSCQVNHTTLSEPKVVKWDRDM
The molecule B1 gave a Kd of 16.7 nM.
Same read-out and setting: then B2, with 49 nM; and B3, with 21.4 nM; and B4, with 18.8 nM.

For the next assay, the target named is T1, Feline FcRn (complex of FcRn-α subunit and β-microglobulin, C-terminal His tag) (feline, UniProt A0ABI7ZNY9 23-296; Q5MGS7 21-118).
T1 construct: treated here as one molecule
Nature of the assay: SPR Biacore, FcRn on sensor, pH 6; pH 6. The method, then: As discussed in the above Example section, Feline FcRn was isolated, prepared and mutant Fc IgGs were assayed against feline FcRn according to Strietzelg et. al. Standard RACE PCR was used to amplify feline FcRn-α subunit and β-microglobulin. FcRn-α subunit and β-microglobulin were co-transfected into HEK 293 cells and the FcRn complex was purified by IMAC affinity purification via the c-terminal His tag. KD's were measured by Biacore 3000 or Biacore T200 (GE Healthcare, Pittsburgh, PA, USA) using a CM5 sensor chip.
FcRn was captured on the surface of the sensor using a modified SA capture method. 10 mM MES; 150 mM NaCl; 0.005% Tween20; 0.5 mg/mL BSA; pH6 was used as capture, method running buffer and titrations. 1×HBS-P, 0.5 mg/mL BSA; pH7.4 was also used for method running buffer and titrations. Fc mutant IgGs were flowed over receptor surfaces and affinity was determined using T200 evaluation software or Biacore Insight Evaluation software. Blank runs containing buffer only were subtracted out from all runs. Flow cells were regenerated using 50 mM Tris pH8 or pH9. Runs were performed at 15° C.
For orientation: Surface plasmon resonance follows binding to a sensor surface in real time, without labels.
On to B5, for which binding was put at a Kd of 147 nM.
On the same count and under the same terms, the value for B6 was 35.2 nM.
Turning to B7, the affinity, expressed as Kd, was 22.3 nM. Compared with the last molecule, the Kd is about 1.6-fold lower.
Still for that read-out and setting: then B8, with 20.5 nM.
The same measure, in the same setting: the value for B9 was 19.6 nM.
